Test results taken from patent US12247058 (Bristol-Myers Squibb, dated 2025).
Non-standard residues stand in square brackets, D forms with d. Phe(4-Ac) = CC(=O)c1ccc(C[C@H](N)C(=O)O)cc1

T1: human β-klotho with a C-terminal FLAG tag, stably expressed in a clonal HEK-293 cell line (human, UniProt Q86Z14 1-1044)
T1 sequence: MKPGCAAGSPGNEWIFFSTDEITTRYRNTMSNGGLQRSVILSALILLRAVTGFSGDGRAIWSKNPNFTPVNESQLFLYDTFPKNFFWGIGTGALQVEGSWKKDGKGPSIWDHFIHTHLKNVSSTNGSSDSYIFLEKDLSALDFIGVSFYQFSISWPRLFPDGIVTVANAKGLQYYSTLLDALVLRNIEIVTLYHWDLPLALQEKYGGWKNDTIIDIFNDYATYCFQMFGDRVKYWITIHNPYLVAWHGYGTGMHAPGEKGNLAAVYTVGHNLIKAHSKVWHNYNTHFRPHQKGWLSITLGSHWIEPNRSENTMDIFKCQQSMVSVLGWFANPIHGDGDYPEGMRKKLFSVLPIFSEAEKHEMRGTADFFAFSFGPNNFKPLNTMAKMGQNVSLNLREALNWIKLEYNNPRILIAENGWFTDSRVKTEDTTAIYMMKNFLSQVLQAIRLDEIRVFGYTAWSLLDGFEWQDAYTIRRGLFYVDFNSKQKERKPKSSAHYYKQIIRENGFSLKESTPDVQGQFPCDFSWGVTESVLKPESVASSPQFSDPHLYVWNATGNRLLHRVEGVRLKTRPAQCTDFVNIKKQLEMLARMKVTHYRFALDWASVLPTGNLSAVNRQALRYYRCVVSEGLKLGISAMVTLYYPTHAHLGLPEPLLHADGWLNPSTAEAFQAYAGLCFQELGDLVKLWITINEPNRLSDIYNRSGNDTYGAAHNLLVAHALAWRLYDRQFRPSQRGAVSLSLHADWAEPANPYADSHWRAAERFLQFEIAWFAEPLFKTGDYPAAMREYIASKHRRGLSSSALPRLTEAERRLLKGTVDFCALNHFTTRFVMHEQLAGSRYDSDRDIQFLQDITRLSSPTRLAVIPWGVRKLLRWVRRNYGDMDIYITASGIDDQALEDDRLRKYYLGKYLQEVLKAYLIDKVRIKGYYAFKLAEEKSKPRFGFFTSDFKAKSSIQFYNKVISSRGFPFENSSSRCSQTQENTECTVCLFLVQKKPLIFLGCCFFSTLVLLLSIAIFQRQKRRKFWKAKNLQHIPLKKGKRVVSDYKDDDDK

T2: human β-klotho, stably co-expressed with the Elk1-luciferase trans-reporter in HEK293 cells (HEK Luc Clone2) (human, UniProt Q86Z14 1-1044)
T2 sequence: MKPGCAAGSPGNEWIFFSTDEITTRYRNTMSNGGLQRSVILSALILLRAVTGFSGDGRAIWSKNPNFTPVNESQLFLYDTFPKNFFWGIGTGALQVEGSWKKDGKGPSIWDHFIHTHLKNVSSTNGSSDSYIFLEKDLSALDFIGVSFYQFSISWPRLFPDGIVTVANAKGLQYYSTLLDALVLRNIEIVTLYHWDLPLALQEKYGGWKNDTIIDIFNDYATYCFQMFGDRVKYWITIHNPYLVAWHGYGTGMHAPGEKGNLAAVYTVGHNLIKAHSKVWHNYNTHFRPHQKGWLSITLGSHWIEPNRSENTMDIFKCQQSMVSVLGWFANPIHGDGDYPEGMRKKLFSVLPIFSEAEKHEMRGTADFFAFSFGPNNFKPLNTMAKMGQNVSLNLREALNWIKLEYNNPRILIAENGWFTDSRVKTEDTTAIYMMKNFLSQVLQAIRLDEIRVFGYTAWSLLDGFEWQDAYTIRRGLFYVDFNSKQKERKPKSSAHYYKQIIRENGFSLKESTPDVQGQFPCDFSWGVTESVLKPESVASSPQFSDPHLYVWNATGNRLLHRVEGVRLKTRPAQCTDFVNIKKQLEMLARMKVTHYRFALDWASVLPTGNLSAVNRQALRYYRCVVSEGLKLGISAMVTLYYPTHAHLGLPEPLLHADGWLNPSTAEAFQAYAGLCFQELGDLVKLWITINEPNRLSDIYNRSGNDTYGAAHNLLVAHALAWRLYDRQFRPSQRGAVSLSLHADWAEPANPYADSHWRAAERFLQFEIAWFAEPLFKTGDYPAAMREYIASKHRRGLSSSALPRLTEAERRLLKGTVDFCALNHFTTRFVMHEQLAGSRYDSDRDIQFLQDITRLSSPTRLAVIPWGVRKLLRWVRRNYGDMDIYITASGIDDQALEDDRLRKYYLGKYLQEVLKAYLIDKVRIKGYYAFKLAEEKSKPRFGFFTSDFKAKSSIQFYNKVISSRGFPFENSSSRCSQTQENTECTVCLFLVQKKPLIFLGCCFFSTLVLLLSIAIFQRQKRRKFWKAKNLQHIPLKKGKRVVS

B1: Pegylated Compound 1 (ligand)
chain: MHPIPDSSPLLQFGGQVRQRYLYTDDAQQTEAHLEIREDGTVGGAADQSPESLLQLKALKPGVIQILGVKTSRFLCQRPDGALYGSLHFDPEACSFRELLLEDGYNVY[Phe(4-Ac)](PEG 30 kDa)SEAHGLPLHLPGNKSPHRDPAPRGPARFLPLPGLPPAPPEPPGILAPQPPDVGSSDPLSMVGPSQGRSPSYAS
B2: Pegylated Compound 2 (ligand)
chain: MHPIPDSSPLLQFGGQVRQRYLYTDDAQQTEAHLEIREDGTVGGAADQSPESLLQLKALKPGVIQILGVKTSRFLCQRPDGALYGSLHFDPEACSFRELLLEDGYNVY[Phe(4-Ac)](PEG about 30 kDa)SEAHGLPLHLGSGRGPARFLPLPGLPPAPPEPPGILAPQPPDVGSSDPLSMVEPSQGRSPSYAS
B3: Compound 32 (Non-Pegylated Control) (ligand)
chain: MHHHHHHPIPDSSPLLQFGGQVRQRYLYTDDAQQTEAHLEIREDGTVGGAADQSPESLLQLKALKPGVIQILGVKTSRFLCQRPDGALYGSLHFDPEACSFRELLLEDGYNVYQSEAHGLPLHLPGNKSPHRDPAPRGPARFLPLPGLPPALPEPPGILAPQPPDVGSSDPLSMVGPSQGRSPSYAS
B4: Compound 181 [Fc(hIgG1f_1.1_186)-L7-FGF21 (Cmp. 2)] (Fc fusion)
chain: EPKSSDKTHTCPPCPAPEAEGAPSVFLFPPKPKDTLMISRTPEVTCVVVDVSHEDPEVKFNWYVDGVEVHNAKTKPREEQYNSTYRVVSVLTVLHQDWLNGKEYKCKVSNKALPSSIEKTISKAKGQPREPQVYTLPPSREEMTKNQVSLTCLVKGFYPSDIAVEWESNGQPENNYKTTPPVLDSDGSFFLYSKLTVDKSRWQQGNVFSCSVMHEALHNHYTQKSLSLSPGKGGGGGSGGGSGGGGSHPIPDSSPLLQFGGQVRQRYLYTDDAQQTEAHLEIREDGTVGGAADQSPESLLQLKALKPGVIQILGVKTSRFLCQRPDGALYGSLHFDPEACSFRELLLEDGYNVYQSEAHGLPLHLGSGRGPARFLPLPGLPPAPPEPPGILAPQPPDVGSSDPLSMVEPSQGRSPSYAS

Assays:
Test in all cases: cell-based or functional assay
[1] = biological target: T1, human β-klotho with a C-terminal FLAG …
[2] = biological target: T1, human β-klotho with a C-terminal FLAG …; remark: listed apart in the source
[3] = biological target: T2, human β-klotho, stably co-expressed …
[4] = biological target: T2, human β-klotho, stably co-expressed …; remark: listed apart in the source

| Binder | EC50 in the pERK assay [1] | pERK EC50 [2] | EC50 (geometric mean), 5 hour Elk1-luciferase assay [3] | pEC50, 5 hour Elk1-luciferase assay [3] | Geometric Mean EC50, Elk1-luciferase assay [4] |
| --- | --- | --- | --- | --- | --- |
| B1 | 14 nM | 6.7 nM | 3.6 nM | 8.44 log M |  |
| B2 | 28 nM |  | 5.4 nM | 8.27 log M | 5.9 nM |
| B3 | 8 nM |  |  |  |  |
| B4 |  |  |  |  | 0.8 nM |
